Assay results reported in US20240409645A1 (DUALYX, published 2024).
Numbering of substitutions follows the chain as printed.

T1: human common cytokine receptor γ-chain (IL-2Rγ) (human, UniProt P31785 23-262, limits assumed)
T1 construct: Recombinant human IL-2Rγ protein, coated (ELISA) or amine-coupled to a CM5 chip (SPR); also called hu IL-2R; CD132
T1 sequence: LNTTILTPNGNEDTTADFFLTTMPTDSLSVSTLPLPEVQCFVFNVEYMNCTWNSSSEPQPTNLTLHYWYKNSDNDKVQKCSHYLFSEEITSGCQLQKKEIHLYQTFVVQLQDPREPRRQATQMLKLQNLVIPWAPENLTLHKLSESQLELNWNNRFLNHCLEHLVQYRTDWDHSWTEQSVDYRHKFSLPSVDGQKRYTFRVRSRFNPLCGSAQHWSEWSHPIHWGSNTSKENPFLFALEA

T2: mouse common cytokine receptor γ-chain (IL-2Rγ) (mouse, UniProt P34902 23-263, limits assumed)
T2 construct: Recombinant mouse IL-2Rγ protein; also called mo IL-2R; mouse IL-2R gamma
T2 sequence (looked up): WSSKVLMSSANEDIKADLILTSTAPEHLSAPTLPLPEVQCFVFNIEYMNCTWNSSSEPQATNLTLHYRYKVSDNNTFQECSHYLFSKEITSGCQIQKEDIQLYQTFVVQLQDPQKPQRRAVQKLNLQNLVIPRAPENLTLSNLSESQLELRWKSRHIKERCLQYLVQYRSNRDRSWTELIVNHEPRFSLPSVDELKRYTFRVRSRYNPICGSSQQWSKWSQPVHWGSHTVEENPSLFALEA

B1: FJ1427_P035MP07F04 (VHH)
VHH: EVQLVESGGGLVQAGGSLRLSCAASGRTLSRYAMGWFRQAPGKEREFVTANSWGGDTYYADSVQGRFTFSRDNAKNTVYLQMNSLQPEDTAVYYCAAAPTSFATTAYSSSNSYAYWGQGTQVTVSS
notes: tested as periplasmic extract; also called Clone nr; 606
B2: FJ1427_P035MP07F05 (VHH)
VHH: B1 VHH with K43R
notes: tested as periplasmic extract; also called Clone nr
B3: FJ1427_P035MP07F06 (VHH)
VHH: B1 VHH with E1Q, T28A, Y32L, T49V, N51S, G55D, Y58F, Q64K, E88G
notes: as for B2
B4: FJ1427_P035MP07F07 (VHH)
VHH: B1 VHH
notes: tested as periplasmic extract; also called Clone nr; 630
B5: FJ1427_P035MP07F10 (VHH)
VHH: QVQLQESGGGLVQAGGSLRLSCAASGRTLSRYAMGWFRQAPGKEREFVACDSWGGDTFYADSVEGRFTFSRDNAKNATYLQMNSLQPEDTAVYYCAGAPTSFATTAYSSSNSYTVWGQGTQVTVSL
notes: tested as periplasmic extract; also called Clone nr; 654
B6: FJ1427_P035MP07G04 (VHH)
VHH: B1 VHH
notes: as for B2
B7: FJ1427_P035MP07G05 (VHH)
VHH: B1 VHH with E1Q, T49A, N51D, Q64E, K75N, T77A
notes: as for B2
B8: FJ1427_P035MP07G08 (VHH)
VHH: B1 VHH with E1Q, K43R, N83S
notes: as for B2
B9: FJ1427_P035MP07G10 (VHH)
VHH: B5 VHH with Q5V, F47Y, C50I, A77E, T78V, T114R, V115Y, L126S
notes: tested as periplasmic extract; also called Clone nr; 655
B10: FJ1427_P035MP07H01 (VHH)
VHH: B1 VHH with E1Q, S21F, A24T, K43R, T49A, A50C, N51D, Y58F, Q64K, N73S
notes: as for B2
B11: FJ1427_P035MP07H02 (VHH)
VHH: B1 VHH with E1Q, T28A, Y32L, T49V, N51S, G55D, Y58F, Q64K, E88G
notes: tested as periplasmic extract; also called Clone nr; 592
B12: FJ1427_P035MP07H04 (VHH)
VHH: B1 VHH with E1Q, T49A, N51M, Y58F, Q64E, K75E, N76I, T77A, S126H
notes: as for B2
B13: FJ1427_P035MP07H05 (VHH)
VHH: B1 VHH with E1Q, T49A, A60T, Q64E, T77A, E88G, A114S
notes: as for B2
B14: FJ1427_P035MP07H07 (VHH)
VHH: B1 VHH with E1Q, G16D, T49A, N51T, T57S, Q64E, T77A, Y115N
notes: as for B2
B15: FJ1427_P035MP07H10 (VHH)
VHH: B1 VHH with T28A, Y32L, T49V, N51S, G55D, Y58F, Q64K, E88G
notes: tested as periplasmic extract; also called Clone nr; 656
B16: FJ1427_P035MP07G02 (VHH)
VHH: B1 VHH with E1Q
notes: as for B2
B17: FJ1427_P035MP07D03 (VHH)
VHH: B1 VHH with E1Q
notes: as for B2
B18: FJ1427_P035MP07E03 (VHH)
VHH: B1 VHH with E1Q
notes: tested as periplasmic extract; also called Clone nr; 597
B19: FJ1427_P035MP07G03 (VHH)
VHH: B1 VHH with E1Q
notes: as for B2
B20: FJ1427_P035MP07B05 (VHH)
VHH: B1 VHH with E1Q
notes: tested as periplasmic extract; also called Clone nr; 610
B21: FJ1427_P035MP07E06 (VHH)
VHH: B1 VHH with E1Q
notes: as for B2
B22: FJ1427_P035MP07A07 (VHH)
VHH: B1 VHH with E1Q
notes: as for B2
B23: FJ1427_P035MP07B07 (VHH)
VHH: QVQLVESGGGLVQAGGSLRLSCAASGRSLSRYAMGWFRQAPGKEREFVAAISWGGDSFYTDSVEGRFTFSRDNAKNAVYLEMNDLQPEDTAVYYCAAAPTSFPTTAYSSSNSYSYWGRGTQVTVSS
notes: tested as periplasmic extract; also called Clone nr; 626
B24: FJ1427_P035MP07C07 (VHH)
VHH: B1 VHH with E1Q
notes: tested as periplasmic extract; also called Clone nr; 627
B25: FJ1427_P035MP07G07 (VHH)
VHH: B1 VHH with E1Q
notes: as for B2
B26: FJ1427_P035MP07A08 (VHH)
VHH: B1 VHH with E1Q
notes: tested as periplasmic extract; also called Clone nr; 633
B27: FJ1427_P035MP07C08 (VHH)
VHH: B1 VHH with E1Q
notes: tested as periplasmic extract; also called Clone nr; 635
B28: FJ1427_P035MP07H08 (VHH)
VHH: B1 VHH with E1Q
notes: tested as periplasmic extract; also called Clone nr; 640

Biological target: T1, human common cytokine receptor γ-chain …
Experiment: P.E. binding ELISA
Experimental: (§1) In a binding ELISA, human or mouse IL-2Rα, IL-2Rβ and IL-2Rγ proteins were coated directly on maxisorp microtiter plates overnight at 4° C. Free binding sites were blocked using 4% Marvel in PBS for 1 hour. Next, 1:5 dilution of P.E. in 1% Marvel/PBS were added to wells and incubated for 1 hour. […] Binding specificity was determined based on O.D. at 450 nm values compared to negative controls.

Binder | PE binding ELISA OD [OD450 nm]
B1 | 0.4
B2 | 0.405
B3 | 1.34
B4 | 0.372
B5 | 0.67
B6 | 1.02
B7 | 0.45
B8 | 0.504
B9 | 0.682
B10 | 0.818
B11 | 0.801
B12 | 0.593
B13 | 1.14
B14 | 1.42
B15 | 0.572
B16 | 1.22
B17 | 1.25
B18 | 0.445
B19 | 0.495
B20 | 0.439
B21 | 0.464
B22 | 1.04
B23 | 0.29
B24 | 0.469
B25 | 0.479
B26 | 0.889
B27 | 0.528
B28 | 0.51

Biological target: T2, mouse common cytokine receptor γ-chain …
Experiment: P.E. binding ELISA
Experimental: as §1

Binder | PE binding ELISA OD [OD450 nm]
B1 | 0.047
B2 | 0.045
B3 | 0.082
B4 | 0.045
B5 | 0.089
B6 | 0.047
B7 | 0.046
B8 | 0.047
B9 | 0.74
B10 | 0.133
B11 | 0.066
B12 | 0.052
B13 | 0.049
B14 | 0.047
B15 | 0.049
B16 | 0.051
B17 | 0.046
B18 | 0.048
B19 | 0.048
B20 | 0.045
B21 | 0.046
B22 | 0.047
B23 | 0.045
B24 | 0.047
B25 | 0.045
B26 | 0.049
B27 | 0.049
B28 | 0.047

Biological target: T1, human common cytokine receptor γ-chain …
Experiment: P.E. off-rate SPR
Experimental: (§2) SPR was performed to determine dissociation rates using Biacore 3000 instrument (GE Healthcare). Briefly, human and mouse IL-2R proteins were immobilized on carboxylmethyl dextran sensor chip (CM5) at approximately 2500 RUs using amine coupling in acetate buffer (GE Healthcare). The VHH-containing P.E. were loaded with a flow rate of 30 uL/min and the off-rates were measured over a 120s period.

Binder | koff [s⁻¹]
B1 | 0.00296
B2 | 0.00323
B3 | 0.00162
B4 | 0.003
B5 | 0.00199
B6 | 0.00281
B7 | 0.00257
B8 | 0.003
B9 | 0.00122
B10 | 0.00125
B11 | 0.00188
B12 | 0.00177
B13 | 0.00279
B14 | 0.00418
B15 | 0.00236
B16 | 0.00365
B17 | 0.00339
B18 | 0.00311
B19 | 0.00309
B20 | 0.00282
B21 | 0.00272
B22 | 0.00173
B23 | 0.00259
B24 | 0.0025
B25 | 0.00273
B26 | 0.00255
B27 | 0.00259
B28 | 0.00303

Biological target: T2, mouse common cytokine receptor γ-chain …
Experiment: P.E. off-rate SPR
Experimental: as §2

Binder | koff [s⁻¹]
B1 | 0.115
B2 | 0.116
B3 | 0.0117
B4 | 0.133
B5 | 0.0121
B6 | 0.112
B7 | 0.191
B8 | 0.105
B9 | 0.00682
B10 | 0.0274
B11 | 0.0123
B12 | 0.0823
B13 | 0.118
B14 | 0.00331
B15 | 0.0137
B16 | 0.1
B17 | 0.107
B18 | 0.0966
B19 | 0.099
B20 | 0.11
B21 | 0.102
B22 | 0.0971
B23 | 0.00347
B24 | 0.105
B25 | 0.106
B26 | 0.106
B27 | 0.108
B28 | 0.1
